According to patent US20150315277A1 (published 2015):

Target: recombinant human DLL4 (hDLL4) (human, UniProt Q9NR61 27-524)
Test: Biacore

Sequence of recombinant human DLL4 (hDLL4) (Q9NR61 27-524): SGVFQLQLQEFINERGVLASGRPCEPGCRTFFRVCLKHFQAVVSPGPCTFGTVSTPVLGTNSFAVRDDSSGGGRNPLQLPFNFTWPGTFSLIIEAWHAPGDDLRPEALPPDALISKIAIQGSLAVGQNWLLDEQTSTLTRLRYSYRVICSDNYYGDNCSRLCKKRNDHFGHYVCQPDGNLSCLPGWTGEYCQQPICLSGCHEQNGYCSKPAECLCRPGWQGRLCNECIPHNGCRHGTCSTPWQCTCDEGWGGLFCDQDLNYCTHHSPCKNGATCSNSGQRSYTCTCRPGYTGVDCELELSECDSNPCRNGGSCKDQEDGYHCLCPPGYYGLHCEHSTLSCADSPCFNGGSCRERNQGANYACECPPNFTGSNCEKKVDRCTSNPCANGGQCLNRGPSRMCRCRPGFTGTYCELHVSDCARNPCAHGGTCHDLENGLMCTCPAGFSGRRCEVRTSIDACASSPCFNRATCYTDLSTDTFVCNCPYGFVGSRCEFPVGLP

Kd: 19.9 nM
B1: Notch-1 Fc (rhNotch1-Fc) (Fc fusion)
chain: ARGPRCSQPGETCLNGGKCEAANGTEACVCGGAFVGPRCQDPNPCLSTPCKNAGTCHVVDRRGVADYACSCALGFSGPLCLTPLDNACLTNPCRNGGTCDLLTLTEYKCRCPPGWSGKSCQQADPCASNPCANGGQCLPFEASYICHCPPSFHGPTCRQDVNECGQKPGLCRHGGTCHNEVGSYRCVCRATHTGPNCERPYVPCSPSPCQNGGTCRPTGDVTHECACLPGFTGQNCEENIDDCPGNNCKNGGACVDGVNTYNCRCPPEWTGQYCTEDVDECQLMPNACQNGGTCHNTHGGYNCVCVNGWTGEDCSENIDDCASAACFHGATCHDRVASFYCECPHGRTGLLCHLNDACISNPCNEGSNCDTNPVNGKAICTCPSGYTGPACSQDVDECSLGANPCEHAGKCINTLGSFECQCLQGYTGPRCEIDVNECVSNPCQNDATCLDQIGEFQCICMPGYEGVHCEVNTDECASSPCLHNGRCLDKINEFQCECPTGFTGHLCQ
